Source: US6106844A, “Immunomodulatory peptides of vespid antigen 5” (The Rockfeller University, priority 1998, dated 2000)

Key:
[1] = tested on: r-Ag5 specific spleen cells from ASW/Sn mice; assay: In vitro proliferation assay, spleen cells of r-Ag5-immunized ASW/Sn mice; format: cell-based; conditions: spleen cells from mice immunized 5 times with rAg5; blank 5640 cpm
Protocol: (§1) FIG. 11. Stimulation index profile of ASW/sn mice spleens after 5 immunizations with r-Ag5. In vitro proliferation assays were performed with peptides at three concentrations: 1×10^-5 M (open bar), 1.25×10^-6 M ("uphill" hatch), and 1.56×10^-7 M ("downhill" hatch). The corresponding concentrations of recombinant Antigen 5 were 1.0×10^-6 M, 1.25×10^-7, and 1.56×10^-8 M. The blank was 5640 cpm.
The peptides of the invention can be tested in a proliferation assay for T cell responses. Generally, lymphocytes from a sensitized host are obtained. The host can be a mouse that has been immunized with a vespid venom antigen 5, or with a crossreactive protein, such as testes specific protein. Using techniques that are well known in the art, T lymphocyte response to the peptide can be measured in vitro. In a specific embodiment, infra, T cell responses are detected by measuring incorporation of ^3 H-thymidine, which increases with DNA synthesis associated with proliferation. Cell proliferation can also be detected using an MTT assay [Mossman, J. Immunol. Methods, 65:55-63,(1983); Niks and Otto, J. Immunol. Methods, 130:140-151 (1990)]. Alternatively, lymphokine production assays can be practiced according to the present invention. In one embodiment, lymphokine production can be assayed using immunological or co-stimulation assays [see, e.g., Fehlner et al., J. Immunol., 146:799 (1991)] or using the ELISPOT technique [Czerkinsky, et al., J. Immunol. Methods, 110:29 (1988)]. Alternatively, mRNA for lymphokines can be detected, e.g., by amplification [see Brenner, et al., Biotechniques, 7:1096 (1989)] or in situ hybridization [see, e.g., Kasaian and Biron, J. Immunol., 142:1287 (1989)]. Of particular interest are those individuals whose T cells produce lymphokines associated with IgE isotype switch events, e.g., IL-4 and IL-5 [Purkeson and Isakson, J. Exp. Med., 175:973-982 (1992)]. Also of interest are the peptide fragments of the vespid venom antigen 5 that contain epitopes recognized by T cells involved in IgE switch events. […]

n-Dol m 5.01 = target: T1, n-Dol m 5.01 (Dolichovespula maculata, UniProt P10736); assay: Antibody response by direct ELISA of mice immunized with recombinant white faced hornet Ag5, wells coated with n-Dol m 5.01; format: in vivo; conditions: week five sera after three i.p. immunizations with rDol m 5.02 and alum
T1 construct: from tissue; host or cells: natural protein
T1 sequence (P10736 24-227): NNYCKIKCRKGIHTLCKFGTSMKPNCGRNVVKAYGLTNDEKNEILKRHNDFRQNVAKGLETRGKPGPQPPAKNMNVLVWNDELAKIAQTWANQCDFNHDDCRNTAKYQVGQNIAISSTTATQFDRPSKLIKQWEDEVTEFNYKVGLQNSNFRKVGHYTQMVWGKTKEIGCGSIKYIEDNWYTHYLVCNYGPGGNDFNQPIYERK
Protocol: Antibody response in mice of different haplotypes to recombinant hornet Ag5. Five strains of mice were immunized with recombinant (r) white faced hornet Ag5 and alum as adjuvant. […] The antibody titers (the reciprocal of the dilution yielding 50% of maximum signal extrapolated from ELISA curves in wells coated with r-Dol m 5.02 or n-Dol m 5.01) of these sera for n-(natural) and r-Ag5 are given in Table 3.
*Sera are from week five bleeding after three intraperitoneal
immunizations with 0.2 ml of 10 μg/ml rDol m 5.02 and alum (5 μg/ml
in 0.05 m sodium phosphate buffer, pH 6.2, on weeks 0, 2, and 4.

[2] = tested on: r-Ag5 specific spleen cells from C3H/He mice; assay: In vitro proliferation assay, spleen cells of r-Ag5-immunized C3H/He mice; format: cell-based; conditions: spleen cells from mice immunized 5 times with rAg5; blank 3130 cpm
Protocol: as §1, with “13.” for “11.”, “C3H/He” for “ASW/sn”, “3130” for “5640”
The peptides of the invention can be tested in a proliferation assay for T cell responses. Generally, lymphocytes from a sensitized host are obtained. The host can be a mouse that has been immunized with a vespid venom antigen 5, or with a crossreactive protein, such as testes specific protein. Using techniques that are well known in the art, T lymphocyte response to the peptide can be measured in vitro. In a specific embodiment, infra, T cell responses are detected by measuring incorporation of ^3 H-thymidine, which increases with DNA synthesis associated with proliferation. Cell proliferation can also be detected using an MTT assay [Mossman, J. Immunol. Methods, 65:55-63,(1983); Niks and Otto, J. Immunol. Methods, 130:140-151 (1990)]. […] Alternatively, mRNA for lymphokines can be detected, e.g., by amplification [see Brenner, et al., Biotechniques, 7:1096 (1989)] or in situ hybridization [see, e.g., Kasaian and Biron, J. Immunol., 142:1287 (1989)]. […]

B1: r-Ag5: recombinant white faced hornet (Dolichovespula maculata) antigen 5 form 2, Dol m 5.02 (protein)
chain: NNYCKIKCSRGIHTLCKFGTSMKPNCGSKLVKVHGVSNDEKNEIVNRHNQFRQKVAKGLETRGNPGPQPPAKNMNVLVWNDELAKIAQTWANQCSFGHDQCRNTEKYQVGQNVAIASTTGNSYATMSKLIEMWENEVKDFNPKKGTMGDNNFSKVGHYTQMVWGKTKEIGCGSVKYIENNWHTHYLVCNYGPAGNYMDQPIYERK
B1 was tested, and the “Stimulation Index ASW/Sn” value [1] was 15.4, the “Half maximal Ab titer n-Dol m 5.01” value (n-Dol m 5.01; ASW/Sn mice (haplotype s)) was 1 × 10^5 and the “Half maximal Ab titer n-Dol m 5.01” value (n-Dol m 5.01; BALB/c byj mice (haplotype d)) was 4 × 10^4. The “Half maximal Ab titer n-Dol m 5.01” value (n-Dol m 5.01; C3H/He mice (haplotype k)) was 2 × 10^3, the “Half maximal Ab titer n-Dol m 5.01” value (n-Dol m 5.01; C57B1/6 mice (haplotype b)) was 2 × 10^1 and the “Half maximal Ab titer n-Dol m 5.01” value (n-Dol m 5.01; P/J mice (haplotype p)) was 1 × 10^4. For the same molecule, the “Stimulation Index C3H/He” value [2] was 12.3.
